Values belong to the sequence of their own block, whether it stands above or below them.
Key:
HLA-B*18:01 = experiment: IEDB peptide-MHC binding, purified MHC/competitive/radioactivity; filed as Kd, often an IC50 or EC50 that approximates it; ≥ and ≤ were set here for values at or beyond the usual limits of such assays
HLA-B*40:01 = experiment: as above
HLA-B*40:02 = experiment: as above
HLA-B*44:02 = experiment: as above
HLA-B*44:03 = experiment: as above
HLA-B*45:01 = experiment: as above
HLA-B*15:01 = experiment: IEDB peptide-MHC binding, purified MHC/competitive/fluorescence; filed as Kd, often an IC50 or EC50 that approximates it; ≥ and ≤ were set here for values at or beyond the usual limits of such assays; details: source organism: Paracoccus denitrificans PD1222
HLA-A*01:01 = experiment: IEDB peptide-MHC binding, purified MHC/competitive/radioactivity; filed as Kd, often an IC50 or EC50 that approximates it; ≥ and ≤ were set here for values at or beyond the usual limits of such assays
HLA-A*26:01 = experiment: as above
HLA-A*29:02 = experiment: as above
HLA-A*30:01 = experiment: as above
HLA-A*30:02 = experiment: as above
HLA-A*32:01 = experiment: as above
HLA-A*02:01 = experiment: as above
HLA-A*02:06 = experiment: as above
HLA-A*68:02 = experiment: as above
HLA-A*02:02 = experiment: as above; details: source organism: Trypanosoma cruzi
HLA-A*02:03 = experiment: as above; details: source organism: Trypanosoma cruzi
[1] = source organism: Mammarenavirus brazilense
[2] = source organism: SARS coronavirus Tor2
[3] = source organism: Mammarenavirus machupoense
[4] = source organism: Mammarenavirus whitewaterense
[5] = source organism: Trypanosoma cruzi
[6] = source organism: Mammarenavirus lassaense

Sequence: AENDIVEAL
- Kd (HLA-B*18:01; [1]): 10800 nM
- Kd (HLA-B*40:01; [1]): 5.87 nM
- Kd (HLA-B*40:02; [1]): 25.2 nM
- Kd (HLA-B*44:02; [1]): 43.5 nM
- Kd (HLA-B*44:03; [1]): 108 nM
- Kd (HLA-B*45:01; [1]): 1030 nM

Sequence: AEWVLAYMLF
- Kd (HLA-B*18:01; [2]): 327 nM
- Kd (HLA-B*40:01; [2]): 152 nM
- Kd (HLA-B*40:02; [2]): 19.2 nM
- Kd (HLA-B*44:02; [2]): 16.2 nM
- Kd (HLA-B*44:03; [2]): 9.16 nM
- Kd (HLA-B*45:01; [2]): 41 nM

- Kd (HLA-B*15:01): 123 nM
Sequence: ALAAAGAAY

Sequence: CEEMLDNRAT
- Kd (HLA-B*18:01; [2]): ≥ 46100 nM
- Kd (HLA-B*40:01; [2]): 18300 nM
- Kd (HLA-B*40:02; [2]): 8590 nM
- Kd (HLA-B*44:02; [2]): 560 nM
- Kd (HLA-B*44:03; [2]): 10300 nM
- Kd (HLA-B*45:01; [2]): 139 nM

Sequence: DESGLNISGY
- Kd (HLA-B*18:01; [1]): 199 nM
- Kd (HLA-B*40:01; [1]): ≥ 69500 nM
- Kd (HLA-B*40:02; [1]): ≥ 70800 nM
- Kd (HLA-B*44:02; [1]): 12800 nM
- Kd (HLA-B*44:03; [1]): 7830 nM
- Kd (HLA-B*45:01; [1]): ≥ 70000 nM

Sequence: DESKKEINLL
- Kd (HLA-B*18:01; [3]): 2880 nM
- Kd (HLA-B*40:01; [3]): ≥ 69500 nM
- Kd (HLA-B*40:02; [3]): ≥ 70800 nM
- Kd (HLA-B*44:02; [3]): ≥ 70200 nM
- Kd (HLA-B*44:03; [3]): ≥ 70100 nM
- Kd (HLA-B*45:01; [3]): ≥ 70000 nM

Sequence: DLGLLYTAKY
- Kd (HLA-A*01:01; [4]): 13700 nM
- Kd (HLA-A*26:01; [4]): 1000 nM
- Kd (HLA-A*29:02; [4]): 386 nM
- Kd (HLA-A*30:01; [4]): ≥ 58400 nM
- Kd (HLA-A*30:02; [4]): 36.9 nM
- Kd (HLA-A*32:01; [4]): ≥ 69900 nM

Sequence: EEAIRHVRA
- Kd (HLA-B*18:01; [2]): ≥ 55700 nM
- Kd (HLA-B*40:01; [2]): 5590 nM
- Kd (HLA-B*40:02; [2]): 5530 nM
- Kd (HLA-B*44:02; [2]): 2780 nM
- Kd (HLA-B*44:03; [2]): 5810 nM
- Kd (HLA-B*45:01; [2]): 39.8 nM

Sequence: EEPVALLPLS
- Kd (HLA-B*18:01; [3]): 15500 nM
- Kd (HLA-B*40:01; [3]): 5160 nM
- Kd (HLA-B*40:02; [3]): 4410 nM
- Kd (HLA-B*44:02; [3]): 8420 nM
- Kd (HLA-B*44:03; [3]): 2940 nM
- Kd (HLA-B*45:01; [3]): 795 nM

Sequence: EEVVLKNGEL
- Kd (HLA-B*18:01; [2]): 381 nM
- Kd (HLA-B*40:01; [2]): 6.33 nM
- Kd (HLA-B*40:02; [2]): 13.9 nM
- Kd (HLA-B*44:02; [2]): 46.7 nM
- Kd (HLA-B*44:03; [2]): 14.8 nM
- Kd (HLA-B*45:01; [2]): 1330 nM

- Kd (HLA-A*02:01; source organism: Homo sapiens): 18800 nM
- Kd (HLA-A*02:06; source organism: Homo sapiens): ≥ 72500 nM
- Kd (HLA-A*68:02; source organism: Homo sapiens): 2530 nM
Sequence: ELRSKREQEV

- Kd (HLA-A*02:01; source organism: Homo sapiens): ≥ 33900 nM
- Kd (HLA-A*02:06; source organism: Homo sapiens): ≥ 72500 nM
- Kd (HLA-A*68:02; source organism: Homo sapiens): 512 nM
Sequence: EMRQKHSQAV

Sequence: EWIFRALKY
- Kd (HLA-A*01:01; [1]): ≥ 37300 nM
- Kd (HLA-A*26:01; [1]): 7080 nM
- Kd (HLA-A*29:02; [1]): 183 nM
- Kd (HLA-A*30:01; [1]): ≥ 38000 nM
- Kd (HLA-A*30:02; [1]): 7750 nM
- Kd (HLA-A*32:01; [1]): ≥ 77800 nM

Sequence: FEVLAVEDT
- Kd (HLA-B*18:01; [2]): 3400 nM
- Kd (HLA-B*40:01; [2]): 10900 nM
- Kd (HLA-B*40:02; [2]): 1870 nM
- Kd (HLA-B*44:02; [2]): ≥ 47900 nM
- Kd (HLA-B*44:03; [2]): 13500 nM
- Kd (HLA-B*45:01; [2]): 11600 nM

Sequence: FLPSDFFPSA
- Kd (HLA-A*02:01; source organism: Hepatitis B virus): 23 nM

Sequence: GESVKTQFNY
- Kd (HLA-B*18:01; [2]): ≥ 20100 nM
- Kd (HLA-B*40:01; [2]): 11600 nM
- Kd (HLA-B*40:02; [2]): 486 nM
- Kd (HLA-B*44:02; [2]): 479 nM
- Kd (HLA-B*44:03; [2]): 295 nM
- Kd (HLA-B*45:01; [2]): 7630 nM

Sequence: GLLPLFLLLG
- Kd (HLA-A*02:01; [5]): 0.154 nM
- Kd (HLA-A*02:02): 29.1 nM
- Kd (HLA-A*02:03): 138 nM
- Kd (HLA-A*02:06; [5]): 18.3 nM
- Kd (HLA-A*68:02; [5]): 7590 nM

Sequence: KEAYCQEFSL
- Kd (HLA-B*18:01; [6]): ≥ 36900 nM
- Kd (HLA-B*40:01; [6]): 88.3 nM
- Kd (HLA-B*40:02; [6]): 9.68 nM
- Kd (HLA-B*44:02; [6]): 4180 nM
- Kd (HLA-B*44:03; [6]): 16100 nM
- Kd (HLA-B*45:01; [6]): 5690 nM
